In US20110300138A1 (published 2011):
Values belong to the binder of their own block, whether it stands above or below them.

Assays:
[1] = target: T1, TSHR260-alkaline phosphatase (TSHR260-AP) (human, UniProt P05187 23-511); assay: TSHR260-AP bridge ELISA, full length TSHR on wells; 0.005 µg/mL, diluted in assay buffer
T1 construct: Fusion of human TSHR amino acids 22-260 (construct codes 1-260, 1-21 being the leader) with secreted alkaline phosphatase, expressed in insect cells; In the ELISA the antibody bridges full length detergent-solubilised TSHR coated on the wells and TSHR260-AP in the liquid phase
Description: (§1) An ELISA was established based on the ability of divalent TSHR antibodies to bind with one antigen binding site to TSHR coated onto an ELISA plate well and with the other antigen binding site to TSHR260-AP in a liquid phase i.e. forming a bridge. TSHR in the form of full length detergent-solubilised receptor expressed in CHO cells was coated onto ELISA plate wells via a C-terminal antibody as described previously (Bolton J et al 1999 supra). In the assay 75 μL of start buffer (as described for TRAb ELISA; Bolton J, et al 1999 supra) and 75 μL of test sample (patient sera or monoclonal antibodies) were added to the ELISA plate wells coated with the full length detergent solubilised TSHR and incubated for 2 hours at room temperature with shaking (500 rpm). Then the contents of the wells were removed, the wells washed 3 times with wash buffer (50 mmol/L NaCl, 20 mmol/L Tris pH 7.8, 1% Triton X-100) followed by addition of […] of TSHR260-AP (diluted in wash buffer containing 0.2 g/L MgCl₂-6H₂O and 2 g/L BSA). After incubation for 1 hour at room temperature with shaking (500 rpm) the wells were emptied, washed (3 times) and 100 μL of p-nitrophenyl phosphate (pNpp) substrate (Europa Bioproducts Ltd, Ely, Cambridge UK) added and the plate incubated in the dark for 45 minutes. Thereafter 100 μL of stop solution (1 mol/L NaOH) was added and the absorbance read at 405 nm in an ELISA plate reader. […] In some experiments solubilised preparations of recombinant TSHR containing mutation R255D expressed in CHO cells were used to coat the ELISA plate wells.
(§2) TSHR260-AP is a fusion protein consisting of a fragment of human TSHR (amino acids 22-260) e with alkaline phosphatase. […] Mean absorbance = mean of duplicate determinations.

[2] = target: T1, TSHR260-alkaline phosphatase …; assay: TSHR260-AP bridge ELISA, full length TSHR on wells; 10 µg/mL, diluted in HBD
Description: as §1, §2

[3] = target: T1, TSHR260-alkaline phosphatase …; assay: TSHR260-AP bridge ELISA, full length TSHR on wells; 0.1 µg/mL, diluted in assay buffer
Description: as §1, §2

[4] = target: T1, TSHR260-alkaline phosphatase …; assay: TSHR260-AP bridge ELISA, full length TSHR on wells; 0.1 µg/mL, diluted in HBD
Description: as §1, §2

[5] = target: T1, TSHR260-alkaline phosphatase …; assay: TSHR260-AP bridge ELISA, full length TSHR on wells; 250 µg/mL, diluted in HBD
Description: as §1, §2

[6] = target: T1, TSHR260-alkaline phosphatase …; assay: TSHR260-AP bridge ELISA, full length TSHR on wells; 0.005 µg/mL, diluted in HBD
Description: as §1, §2

[7] = target: T1, TSHR260-alkaline phosphatase …; assay: TSHR260-AP bridge ELISA, full length TSHR on wells; 10 µg/mL, diluted in assay buffer
Description: as §1, §2

[8] = target: T1, TSHR260-alkaline phosphatase …; assay: TSHR260-AP bridge ELISA, full length TSHR on wells; 250 µg/mL, diluted in assay buffer
Description: as §1, §2

[9] = target: T2, human TSH receptor (full length), coated on tubes (human, UniProt P16473 22-764); assay: inhibition of 125I-K1-70 Fab (competitor) binding to TSHR coated tubes; 0.001 µg/mL in assay buffer
T2 construct: TSHR coated tubes as described in WO2004/050708A2; The receptor is full length and held on plastic tubes through a mouse MAb to the TSHR; also called thyroid stimulating hormone receptor
Description: (§3) Binding inhibition assays were carried out using TSHR coated tubes as described in WO2004/050708A2. […] After aspiration, the tubes were washed and 100 μL of ¹²⁵I-labelled protein (5×10⁴ cpm) added and incubated for 1 hour at room temperature with shaking. The tubes were then aspirated, washed and counted in a gamma counter. Inhibition of labelled protein binding was calculated as 100×[1−(cpm bound in the presence of test material/cpm bound in the presence of control material)].

[10] = target: T2, human TSH receptor (full length), …; assay: inhibition of 125I-K1-70 Fab (competitor) binding to TSHR coated tubes; 0.001 µg/mL in HBD serum pool
Description: as §3

[11] = target: T2, human TSH receptor (full length), …; assay: inhibition of 125I-K1-70 Fab (competitor) binding to TSHR coated tubes; 10 µg/mL in assay buffer
Description: as §3

[12] = target: T2, human TSH receptor (full length), …; assay: inhibition of 125I-K1-70 Fab (competitor) binding to TSHR coated tubes; 0.1 µg/mL in assay buffer
Description: as §3

[13] = target: T2, human TSH receptor (full length), …; assay: inhibition of 125I-K1-70 Fab (competitor) binding to TSHR coated tubes; 0.01 µg/mL in assay buffer
Description: as §3

[14] = target: T2, human TSH receptor (full length), …; assay: inhibition of 125I-K1-70 Fab (competitor) binding to TSHR coated tubes; 30 µg/mL in HBD serum pool
Description: as §3

[15] = target: T2, human TSH receptor (full length), …; assay: inhibition of 125I-K1-70 Fab (competitor) binding to TSHR coated tubes; 0.03 µg/mL in HBD serum pool
Description: as §3

[16] = target: T2, human TSH receptor (full length), …; assay: inhibition of 125I-K1-70 Fab (competitor) binding to TSHR coated tubes; 1 µg/mL in assay buffer
Description: as §3

[17] = target: T2, human TSH receptor (full length), …; assay: inhibition of 125I-K1-70 Fab (competitor) binding to TSHR coated tubes; 0.1 µg/mL in HBD serum pool
Description: as §3

[18] = target: T2, human TSH receptor (full length), …; assay: inhibition of 125I-K1-70 Fab (competitor) binding to TSHR coated tubes; 3 µg/mL in HBD serum pool
Description: as §3

[19] = target: T2, human TSH receptor (full length), …; assay: inhibition of 125I-K1-70 Fab (competitor) binding to TSHR coated tubes; 100 µg/mL in HBD serum pool
Description: as §3

[20] = target: T2, human TSH receptor (full length), …; assay: inhibition of 125I-K1-70 Fab (competitor) binding to TSHR coated tubes; 0.003 µg/mL in assay buffer
Description: as §3

[21] = target: T2, human TSH receptor (full length), …; assay: inhibition of 125I-K1-70 Fab (competitor) binding to TSHR coated tubes; 100 µg/mL in assay buffer
Description: as §3

[22] = target: T2, human TSH receptor (full length), …; assay: inhibition of 125I-K1-70 Fab (competitor) binding to TSHR coated tubes; 30 µg/mL in assay buffer
Description: as §3

[23] = target: T2, human TSH receptor (full length), …; assay: inhibition of 125I-K1-70 Fab (competitor) binding to TSHR coated tubes; 0.03 µg/mL in assay buffer
Description: as §3

[24] = target: T2, human TSH receptor (full length), …; assay: inhibition of 125I-K1-70 Fab (competitor) binding to TSHR coated tubes; 3 µg/mL in assay buffer
Description: as §3

[25] = target: T2, human TSH receptor (full length), …; assay: inhibition of 125I-K1-70 Fab (competitor) binding to TSHR coated tubes; 10 µg/mL in HBD serum pool
Description: as §3

[26] = target: T2, human TSH receptor (full length), …; assay: inhibition of 125I-K1-70 Fab (competitor) binding to TSHR coated tubes; 0.003 µg/mL in HBD serum pool
Description: as §3

[27] = target: T2, human TSH receptor (full length), …; assay: inhibition of 125I-K1-70 Fab (competitor) binding to TSHR coated tubes; 0.3 µg/mL in assay buffer
Description: as §3

[28] = target: T2, human TSH receptor (full length), …; assay: inhibition of 125I-K1-70 Fab (competitor) binding to TSHR coated tubes; 0.3 µg/mL in HBD serum pool
Description: as §3

[29] = target: T2, human TSH receptor (full length), …; assay: inhibition of 125I-K1-70 Fab (competitor) binding to TSHR coated tubes; 0.01 µg/mL in HBD serum pool
Description: as §3

[30] = target: T2, human TSH receptor (full length), …; assay: inhibition of 125I-K1-70 Fab (competitor) binding to TSHR coated tubes; 1 µg/mL in HBD serum pool
Description: as §3

Mean absorbance at 405 nm [1]: 0.136 absorbance at 405 nm
Mean absorbance at 405 nm [2]: 0.66 absorbance at 405 nm
Mean absorbance at 405 nm [3]: 0.545 absorbance at 405 nm
Mean absorbance at 405 nm [4]: 0.292 absorbance at 405 nm
Mean absorbance at 405 nm [5]: 0.722 absorbance at 405 nm
Mean absorbance at 405 nm [6]: 0.013 absorbance at 405 nm
Mean absorbance at 405 nm [7]: 0.8 absorbance at 405 nm
Mean absorbance at 405 nm [8]: 1.2 absorbance at 405 nm
B1: K1-18 IgG (antibody, V domains shown)
VH: EVQLVQSGAEVKKPGESLKISCKGSGYSFTNYWIGWVRQMPGKGLEWMGIIYPYDSDTRYSPSFEGQVTISADKSIRTAYLHWSSLKASDTAMYYCVRPRDGSYPYDAFDIWGQGTMVTVSS
VL: EIVLTQSPGTLSLSPGERATLSCRASQSVSNNYLAWYQQKPGQAPRLLIYGASSRATGIPDRFSGSGSGTDFTLTISRLEPEDFAVYYCQHCGSSLRAFGQGTKVEIKR
notes: Human IgG1 kappa purified from hetero-hybridoma supernatant

Mean absorbance at 405 nm [1]: -0.004 absorbance at 405 nm
Mean absorbance at 405 nm [2]: -0.002 absorbance at 405 nm
Mean absorbance at 405 nm [3]: 0.002 absorbance at 405 nm
Mean absorbance at 405 nm [4]: -0.011 absorbance at 405 nm
Mean absorbance at 405 nm [5]: -0.007 absorbance at 405 nm
Mean absorbance at 405 nm [6]: -0.011 absorbance at 405 nm
Mean absorbance at 405 nm [7]: 0.008 absorbance at 405 nm
Mean absorbance at 405 nm [8]: 0.049 absorbance at 405 nm
B2: K1-18 Fab (Fab, V domains shown)
VH: EVQLVQSGAEVKKPGESLKISCKGSGYSFTNYWIGWVRQMPGKGLEWMGIIYPYDSDTRYSPSFEGQVTISADKSIRTAYLHWSSLKASDTAMYYCVRPRDGSYPYDAFDIWGQGTMVTVSS
VL: EIVLTQSPGTLSLSPGERATLSCRASQSVSNNYLAWYQQKPGQAPRLLIYGASSRATGIPDRFSGSGSGTDFTLTISRLEPEDFAVYYCQHCGSSLRAFGQGTKVEIKR
notes: residue limits as in claim 65

Inhibition of binding (%) [9]: 11.9%
Inhibition of binding (%) [10]: -2.5%
Inhibition of binding (%) [11]: 93.6%
Inhibition of binding (%) [12]: 92.2%
Inhibition of binding (%) [13]: 75.6%
Inhibition of binding (%) [14]: 95.7%
Inhibition of binding (%) [15]: 57.2%
Inhibition of binding (%) [16]: 93.5%
Inhibition of binding (%) [17]: 81.9%
Inhibition of binding (%) [18]: 94.9%
Inhibition of binding (%) [19]: 96.3%
Inhibition of binding (%) [20]: 40%
Inhibition of binding (%) [21]: 96.7%
Inhibition of binding (%) [22]: 95.1%
Inhibition of binding (%) [23]: 89%
Inhibition of binding (%) [24]: 93.5%
Inhibition of binding (%) [25]: 94.8%
Inhibition of binding (%) [26]: 2.5%
Inhibition of binding (%) [27]: 92.7%
Inhibition of binding (%) [28]: 91.4%
Inhibition of binding (%) [29]: 25.3%
Inhibition of binding (%) [30]: 94.2%
B3: K1-70 Fab (Fab, V domains shown)
VH: EVQLVQSGAEVKKPGQSLKISCKASGYSLTDNWIGWVRQKPGKGLEWMGIIYPGDSDTRYSPSFQGQVTISADKSINTAYLQWSSLKASDTAIYYCVGLDWNYNPLRYWGPGTLVTVSS
VL: QSVLTQPPSVSAAPGQKVTISCSGSSSDIGSNYVSWYQQFPGTAPKLLIYDNNKRPSAIPDRFSGSKSGTSATLGITGLQTGDEADYYCGTWDSRLGIAVFGGGTQLTVLG
